Results published in the supplement of paper PMC9112550, “Optimization of the antimicrobial peptide Bac7 by deep mutational scanning” (BMC Biology, 2022).

What follows are sequences tested on Escherichia coli TOP10 (assay: shrunken log2 fold change of peptide-encoding DNA abundance (4.5 h post-induction vs induction); higher = less antimicrobial activity (less host growth inhibition)). Conditions: time post-induction: 4.5 h; library: site-saturation at positions 5, 18, 19, 20.
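Further: peptides expressed intracellularly from a pBAD plasmid library in pooled LB shake-flask culture, induced with 0.3% L-arabinose, DNA abundance read by NGS, three biological replicates, DESeq2 with apeglm shrinkage.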

Row | Sequence | shrunken log2 fold change
1 | RRIRKRPPRLPRPRPRPIDTPRP | -0.0729
2 | RRIRDRPPRLPRPRPRPDPSPRP | -0.0385
3 | RRIRVRPPRLPRPRPRPLQVPRP | -0.0194
4 | RRIRWRPPRLPRPRPRPNARPRP | 0.0903
5 | RRIRQRPPRLPRPRPRPRQCPRP | 0.152
6 | RRIRERPPRLPRPRPRPRWLPRP | 0.108
7 | RRIRHRPPRLPRPRPRPSPHPRP | -0.39
8 | RRIRYRPPRLPRPRPRPLTRPRP | -0.0623
9 | RRIRSRPPRLPRPRPRPFGPPRP | 0.132
10 | RRIRMRPPRLPRPRPRPCSMPRP | -0.0341
11 | RRIRTRPPRLPRPRPRPYIYPRP | -0.706
12 | RRIRKRPPRLPRPRPRPNQLPRP | -0.33
13 | RRIRVRPPRLPRPRPRPNDAPRP | -0.231
14 | RRIRYRPPRLPRPRPRPDNYPRP | -0.175
15 | RRIRMRPPRLPRPRPRPVVHPRP | 0.0142
16 | RRIRERPPRLPRPRPRPKRNPRP | -0.114
17 | RRIRDRPPRLPRPRPRPGRIPRP | -0.136
18 | RRIRKRPPRLPRPRPRPPDCPRP | 1.03
19 | RRIRARPPRLPRPRPRPESWPRP | 1.49
20 | RRIRQRPPRLPRPRPRPEIYPRP | -0.145
21 | RRIRIRPPRLPRPRPRPCNPPRP | -0.123
22 | RRIRRRPPRLPRPRPRPCQHPRP | -0.153
23 | RRIRGRPPRLPRPRPRPPYHPRP | 0.0679
24 | RRIRQRPPRLPRPRPRPTWIPRP | -0.057
25 | RRIRARPPRLPRPRPRPQISPRP | -0.051

Row | Sequence | shrunken log2 fold change
26 | RRIRHRPPRLPRPRPRPYAWPRP | -0.0931
27 | RRIRYRPPRLPRPRPRPWDSPRP | -0.00191
28 | RRIRYRPPRLPRPRPRPQMSPRP | -0.0435
29 | RRIRFRPPRLPRPRPRPVRRPRP | 0.122
30 | RRIRFRPPRLPRPRPRPWPEPRP | 0.0713
31 | RRIRQRPPRLPRPRPRPWIVPRP | -0.0927
32 | RRIRTRPPRLPRPRPRPVKAPRP | 0.0375
33 | RRIRRRPPRLPRPRPRPTIMPRP | 0.0494
34 | RRIRRRPPRLPRPRPRPFLQPRP | 0.117
35 | RRIRRRPPRLPRPRPRPHSCPRP | 0.0404
36 | RRIRYRPPRLPRPRPRPLAPPRP | 0.107
37 | RRIRTRPPRLPRPRPRPNVSPRP | -0.0389
38 | RRIRKRPPRLPRPRPRPSMCPRP | -0.472
39 | RRIRFRPPRLPRPRPRPLSIPRP | -0.203
40 | RRIRTRPPRLPRPRPRPLYMPRP | -0.859
41 | RRIRKRPPRLPRPRPRPMVAPRP | 0.629
42 | RRIRRRPPRLPRPRPRPHQYPRP | 2.56
43 | RRIRCRPPRLPRPRPRPLHAPRP | 0.369
44 | RRIRYRPPRLPRPRPRPSSSPRP | -0.166
45 | RRIRLRPPRLPRPRPRPQFKPRP | -0.501
46 | RRIRFRPPRLPRPRPRPSDPPRP | -0.106
47 | RRIRERPPRLPRPRPRPYCTPRP | -1.13
48 | RRIRYRPPRLPRPRPRPSTPPRP | -0.24
49 | RRIRSRPPRLPRPRPRPIAMPRP | -0.127
50 | RRIRMRPPRLPRPRPRPKWDPRP | 0.68

Row | Sequence | shrunken log2 fold change
51 | RRIRGRPPRLPRPRPRPGNHPRP | -0.147
52 | RRIRQRPPRLPRPRPRPAHAPRP | 0.0691
53 | RRIRIRPPRLPRPRPRPMLNPRP | -0.526
54 | RRIRLRPPRLPRPRPRPQSLPRP | -0.0995
55 | RRIRWRPPRLPRPRPRPLEAPRP | 0.668
56 | RRIRVRPPRLPRPRPRPPPVPRP | 0.767
57 | RRIRFRPPRLPRPRPRPEKLPRP | -0.0722
58 | RRIRMRPPRLPRPRPRPQHMPRP | -0.355
59 | RRIRSRPPRLPRPRPRPQPYPRP | -0.159
60 | RRIRERPPRLPRPRPRPKDHPRP | -0.323
61 | RRIRRRPPRLPRPRPRPAYTPRP | -0.0735
62 | RRIRQRPPRLPRPRPRPRFKPRP | -0.128
63 | RRIRMRPPRLPRPRPRPVPTPRP | 0.5
64 | RRIRYRPPRLPRPRPRPADHPRP | -0.0872
65 | RRIRFRPPRLPRPRPRPPPYPRP | 0.445
66 | RRIRKRPPRLPRPRPRPWQIPRP | 0.141
67 | RRIRARPPRLPRPRPRPLPYPRP | 0.0356
68 | RRIRERPPRLPRPRPRPNMCPRP | -0.369
69 | RRIRTRPPRLPRPRPRPYKFPRP | 0.00477
70 | RRIRERPPRLPRPRPRPEISPRP | -0.407
71 | RRIRKRPPRLPRPRPRPCKRPRP | -0.194
72 | RRIRIRPPRLPRPRPRPLHKPRP | -0.165
73 | RRIRWRPPRLPRPRPRPDEEPRP | 0.215
74 | RRIRPRPPRLPRPRPRPGMTPRP | 0.0694
75 | RRIRDRPPRLPRPRPRPILSPRP | -0.216

Row | Sequence | shrunken log2 fold change
76 | RRIRNRPPRLPRPRPRPECGPRP | 0.445
77 | RRIRWRPPRLPRPRPRPGWYPRP | -0.0191
78 | RRIRIRPPRLPRPRPRPKGQPRP | 0.143
79 | RRIRERPPRLPRPRPRPCVAPRP | 0.258
80 | RRIRDRPPRLPRPRPRPATIPRP | 0.0807
81 | RRIRGRPPRLPRPRPRPMFQPRP | 0.357
82 | RRIRARPPRLPRPRPRPWCVPRP | 0.201
83 | RRIRFRPPRLPRPRPRPWYEPRP | -0.0991
84 | RRIRNRPPRLPRPRPRPKDGPRP | -0.00992
85 | RRIRRRPPRLPRPRPRPASLPRP | 0.338
86 | RRIRTRPPRLPRPRPRPTKAPRP | 0.249
87 | RRIRERPPRLPRPRPRPDPPPRP | 0.32
88 | RRIRWRPPRLPRPRPRPKAQPRP | 0.0185
89 | RRIRFRPPRLPRPRPRPVCIPRP | -0.541
90 | RRIRERPPRLPRPRPRPQYAPRP | -0.158
91 | RRIRERPPRLPRPRPRPPYHPRP | -0.456
92 | RRIRKRPPRLPRPRPRPVWLPRP | 0.192
93 | RRIRSRPPRLPRPRPRPHLRPRP | 0.092
94 | RRIRCRPPRLPRPRPRPPCWPRP | 0.264
95 | RRIRRRPPRLPRPRPRPGSFPRP | 0.122
96 | RRIRQRPPRLPRPRPRPAMYPRP | -0.244
97 | RRIRDRPPRLPRPRPRPVPTPRP | 0.247
98 | RRIRMRPPRLPRPRPRPDPAPRP | 1.13
99 | RRIRSRPPRLPRPRPRPSKLPRP | -0.398
100 | RRIRTRPPRLPRPRPRPEFEPRP | 0.0862

Row | Sequence | shrunken log2 fold change
101 | RRIRCRPPRLPRPRPRPLEWPRP | 0.0823
102 | RRIRPRPPRLPRPRPRPFFLPRP | -0.041
103 | RRIRARPPRLPRPRPRPWFDPRP | -0.178
104 | RRIRWRPPRLPRPRPRPDFHPRP | -0.239
105 | RRIRMRPPRLPRPRPRPGPCPRP | 0.915
106 | RRIRKRPPRLPRPRPRPKGIPRP | 0.106
107 | RRIRSRPPRLPRPRPRPYNAPRP | -0.254
108 | RRIRVRPPRLPRPRPRPGSQPRP | -0.11
109 | RRIRYRPPRLPRPRPRPHEKPRP | -0.00489
110 | RRIRVRPPRLPRPRPRPNSGPRP | -0.496
111 | RRIRERPPRLPRPRPRPCFGPRP | -0.252
112 | RRIRQRPPRLPRPRPRPALNPRP | -0.0345
113 | RRIRHRPPRLPRPRPRPGSFPRP | -0.176
114 | RRIRARPPRLPRPRPRPCNTPRP | -0.0534
115 | RRIRHRPPRLPRPRPRPCGIPRP | -0.0112
116 | RRIRSRPPRLPRPRPRPDESPRP | -0.264
117 | RRIRCRPPRLPRPRPRPWPEPRP | -0.15
118 | RRIRFRPPRLPRPRPRPCCVPRP | -0.189
119 | RRIRLRPPRLPRPRPRPRVFPRP | -0.0171
120 | RRIRIRPPRLPRPRPRPNTDPRP | -0.703
121 | RRIRWRPPRLPRPRPRPQDEPRP | -0.143
122 | RRIRTRPPRLPRPRPRPLITPRP | -0.489
123 | RRIRCRPPRLPRPRPRPCLIPRP | -0.404
124 | RRIRCRPPRLPRPRPRPCGNPRP | -0.278
125 | RRIRARPPRLPRPRPRPGECPRP | 0.298

Row | Sequence | shrunken log2 fold change
126 | RRIRYRPPRLPRPRPRPQHRPRP | -0.602
127 | RRIRHRPPRLPRPRPRPYPHPRP | -0.495
128 | RRIRNRPPRLPRPRPRPDVVPRP | -0.0975
129 | RRIRQRPPRLPRPRPRPKDFPRP | -0.00088
130 | RRIRARPPRLPRPRPRPHYIPRP | -0.296
131 | RRIRWRPPRLPRPRPRPRATPRP | 1.26
132 | RRIRHRPPRLPRPRPRPPYTPRP | -0.266
133 | RRIRKRPPRLPRPRPRPMEVPRP | 0.101
134 | RRIRWRPPRLPRPRPRPGSNPRP | 0.227
135 | RRIRHRPPRLPRPRPRPPCEPRP | 0.00703
136 | RRIRSRPPRLPRPRPRPHGPPRP | -0.0864
137 | RRIRGRPPRLPRPRPRPAGVPRP | 0.742
138 | RRIRGRPPRLPRPRPRPFNGPRP | 0.0458
139 | RRIRQRPPRLPRPRPRPLINPRP | -0.305
140 | RRIRFRPPRLPRPRPRPFYVPRP | -0.417
141 | RRIRGRPPRLPRPRPRPSLPPRP | 0.178
142 | RRIRGRPPRLPRPRPRPHYSPRP | -0.661
143 | RRIRTRPPRLPRPRPRPTDVPRP | 0.284
144 | RRIRFRPPRLPRPRPRPFVQPRP | -0.694
145 | RRIRIRPPRLPRPRPRPRIVPRP | -1.21
146 | RRIRKRPPRLPRPRPRPISQPRP | 0.113
147 | RRIRQRPPRLPRPRPRPSTCPRP | -0.0113
148 | RRIRQRPPRLPRPRPRPETWPRP | 0.00978
149 | RRIRVRPPRLPRPRPRPFKSPRP | 0.0446
150 | RRIRLRPPRLPRPRPRPFAQPRP | 0.18
